Earlier results in patent publication US20200378979.

How the values were obtained:
thrombin (cited work) [1] = molecular target: T1, thrombin (cited work) (UniProt P00734+P00734); experiment: FP; conditions: 5'-FAM; CITED Van Riesen et al. 2018
thrombin (cited work) [2] = molecular target: T1, thrombin (cited work); experiment: ITC; conditions: CITED Pagano et al. 2008

| Sequence | Kd (thrombin (cited work) [1]) [µM] | Kd (thrombin (cited work) [2]) [µM] |
| --- | --- | --- |
| GGTTGGTGTGGTTGG [5'-FAM-TBA] | 4.9 |  |
| GGTTGGTGTGGTTGG [native TBA] |  | 0.33 |
